T1: human IL-18BP (interleukin-18 binding protein, isoform A) (human, UniProt O95998 31-194)
T1 construct: cell assays used Sino Biological 10357-H08H; PBMC assay 1 relies on endogenous IL-18BP; UniProt number is printed as 095998; also called hIL-18BP
T1 sequence: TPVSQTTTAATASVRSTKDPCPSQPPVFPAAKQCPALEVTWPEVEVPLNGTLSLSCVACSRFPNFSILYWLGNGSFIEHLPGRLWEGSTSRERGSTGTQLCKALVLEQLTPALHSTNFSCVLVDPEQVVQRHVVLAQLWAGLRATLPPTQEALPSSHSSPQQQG

T2: cynomolgus IL-18BP (cynomolgus monkey)
T2 construct: Generated in-house; also called cyIL-18BP; cyno IL-18BP
T2 chain: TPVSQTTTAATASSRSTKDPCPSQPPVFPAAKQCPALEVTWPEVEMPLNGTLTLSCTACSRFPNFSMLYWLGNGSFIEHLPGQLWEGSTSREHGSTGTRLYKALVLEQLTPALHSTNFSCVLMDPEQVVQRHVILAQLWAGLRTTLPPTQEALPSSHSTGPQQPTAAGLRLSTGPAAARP


Tests used:
[1] = target: T1, human IL-18BP (interleukin-18 binding …); assay: BLI single-concentration screen, apparent KD
cynomolgus IL-18BP = target: T2, cynomolgus IL-18BP; assay: BLI single-concentration screen, apparent KD

Row | Binder | Kd [1] [nM] | Kd (cynomolgus IL-18BP) [nM]
1 | SA301a heavy chain variant N33bT, C34S (antibody, human IgG1, V domains shown, library variant, human IgG1/kappa, from supernatant) VH: QVQLQESGPGLVKPSQTLSLTCTVSGYSITSDYTSHWIRQPPGKGLEWIGYIHYSGSTNYNPSLKSRVTISRDTSKNQFSLKLSSVTAADTAVYYCARNYGSIYVNYFDYWGQGTLVTVSS VL: EIVLTQSPATLSLSPGERATLSCSASSSVSYMYWYQQKPGQAPRPLIYRTSNLASGIPARFSGSGSGTDFTLTISSLEPEDFAVYYCQQYHSYPTFGGGTKVEIK | 0.3 | 0.4
2 | heavy chain library variant C34K (antibody, V domains shown) VH: QVQLQESGPGLVKPSQTLSLTCTVSGYSITSDYNKHWIRQPPGKGLEWIGYIHYSGSTNYNPSLKSRVTISRDTSKNQFSLKLSSVTAADTAVYYCARNYGSIYVNYFDYWGQGTLVTVSS VL: EIVLTQSPATLSLSPGERATLSCSASSSVSYMYWYQQKPGQAPRPLIYRTSNLASGIPARFSGSGSGTDFTLTISSLEPEDFAVYYCQQYHSYPTFGGGTKVEIK | 1 | 0.5
3 | heavy chain library variant C34P (antibody, V domains shown) VH: QVQLQESGPGLVKPSQTLSLTCTVSGYSITSDYNPHWIRQPPGKGLEWIGYIHYSGSTNYNPSLKSRVTISRDTSKNQFSLKLSSVTAADTAVYYCARNYGSIYVNYFDYWGQGTLVTVSS VL: EIVLTQSPATLSLSPGERATLSCSASSSVSYMYWYQQKPGQAPRPLIYRTSNLASGIPARFSGSGSGTDFTLTISSLEPEDFAVYYCQQYHSYPTFGGGTKVEIK | 20.6 | 9.8
4 | heavy chain library variant C34F (antibody, V domains shown) VH: QVQLQESGPGLVKPSQTLSLTCTVSGYSITSDYNFHWIRQPPGKGLEWIGYIHYSGSTNYNPSLKSRVTISRDTSKNQFSLKLSSVTAADTAVYYCARNYGSIYVNYFDYWGQGTLVTVSS VL: EIVLTQSPATLSLSPGERATLSCSASSSVSYMYWYQQKPGQAPRPLIYRTSNLASGIPARFSGSGSGTDFTLTISSLEPEDFAVYYCQQYHSYPTFGGGTKVEIK | 0.6 | 0.5
5 | heavy chain library variant C34E (antibody, V domains shown) VH: QVQLQESGPGLVKPSQTLSLTCTVSGYSITSDYNEHWIRQPPGKGLEWIGYIHYSGSTNYNPSLKSRVTISRDTSKNQFSLKLSSVTAADTAVYYCARNYGSIYVNYFDYWGQGTLVTVSS VL: EIVLTQSPATLSLSPGERATLSCSASSSVSYMYWYQQKPGQAPRPLIYRTSNLASGIPARFSGSGSGTDFTLTISSLEPEDFAVYYCQQYHSYPTFGGGTKVEIK | 0.9 | 0.5
6 | heavy chain library variant C34L (antibody, V domains shown) VH: QVQLQESGPGLVKPSQTLSLTCTVSGYSITSDYNLHWIRQPPGKGLEWIGYIHYSGSTNYNPSLKSRVTISRDTSKNQFSLKLSSVTAADTAVYYCARNYGSIYVNYFDYWGQGTLVTVSS VL: EIVLTQSPATLSLSPGERATLSCSASSSVSYMYWYQQKPGQAPRPLIYRTSNLASGIPARFSGSGSGTDFTLTISSLEPEDFAVYYCQQYHSYPTFGGGTKVEIK | 0.4 | 0.3
7 | heavy chain library variant C34D (antibody, V domains shown) VH: QVQLQESGPGLVKPSQTLSLTCTVSGYSITSDYNDHWIRQPPGKGLEWIGYIHYSGSTNYNPSLKSRVTISRDTSKNQFSLKLSSVTAADTAVYYCARNYGSIYVNYFDYWGQGTLVTVSS VL: EIVLTQSPATLSLSPGERATLSCSASSSVSYMYWYQQKPGQAPRPLIYRTSNLASGIPARFSGSGSGTDFTLTISSLEPEDFAVYYCQQYHSYPTFGGGTKVEIK | 0.5 | 0.4
8 | heavy chain library variant C34Q (antibody, V domains shown) VH: QVQLQESGPGLVKPSQTLSLTCTVSGYSITSDYNQHWIRQPPGKGLEWIGYIHYSGSTNYNPSLKSRVTISRDTSKNQFSLKLSSVTAADTAVYYCARNYGSIYVNYFDYWGQGTLVTVSS VL: EIVLTQSPATLSLSPGERATLSCSASSSVSYMYWYQQKPGQAPRPLIYRTSNLASGIPARFSGSGSGTDFTLTISSLEPEDFAVYYCQQYHSYPTFGGGTKVEIK | 0.6 | 0.4
9 | heavy chain library variant C34R (antibody, V domains shown) VH: QVQLQESGPGLVKPSQTLSLTCTVSGYSITSDYNRHWIRQPPGKGLEWIGYIHYSGSTNYNPSLKSRVTISRDTSKNQFSLKLSSVTAADTAVYYCARNYGSIYVNYFDYWGQGTLVTVSS VL: EIVLTQSPATLSLSPGERATLSCSASSSVSYMYWYQQKPGQAPRPLIYRTSNLASGIPARFSGSGSGTDFTLTISSLEPEDFAVYYCQQYHSYPTFGGGTKVEIK | 1.8 | 0.6
10 | SA302a heavy chain variant N33bI, C34A (antibody, human IgG1, V domains shown, library variant, human IgG1/kappa, from supernatant) VH: QVQLQESGPGLVKPSQTLSLTCTVSGYSITSDYIAHWIRQPPGKGLEWIGYIHYSGSTNYNPSLKSRVTISRDTSKNQFSLKLSSVTAADTAVYYCARNYGSIYVNYFDYWGQGTLVTVSS VL: EIVLTQSPATLSLSPGERATLSCSASSSVSYMYWYQQKPGQAPRPLIYRTSNLASGIPARFSGSGSGTDFTLTISSLEPEDFAVYYCQQYHSYPTFGGGTKVEIK | 0.6 | 0.4
11 | SA302a heavy chain variant N33bM, C34A (antibody, human IgG1, V domains shown, library variant, human IgG1/kappa, from supernatant) VH: QVQLQESGPGLVKPSQTLSLTCTVSGYSITSDYMAHWIRQPPGKGLEWIGYIHYSGSTNYNPSLKSRVTISRDTSKNQFSLKLSSVTAADTAVYYCARNYGSIYVNYFDYWGQGTLVTVSS VL: EIVLTQSPATLSLSPGERATLSCSASSSVSYMYWYQQKPGQAPRPLIYRTSNLASGIPARFSGSGSGTDFTLTISSLEPEDFAVYYCQQYHSYPTFGGGTKVEIK | 0.9 | 1
12 | SA302a heavy chain variant N33bK, C34A (antibody, human IgG1, V domains shown, library variant, human IgG1/kappa, from supernatant) VH: QVQLQESGPGLVKPSQTLSLTCTVSGYSITSDYKAHWIRQPPGKGLEWIGYIHYSGSTNYNPSLKSRVTISRDTSKNQFSLKLSSVTAADTAVYYCARNYGSIYVNYFDYWGQGTLVTVSS VL: EIVLTQSPATLSLSPGERATLSCSASSSVSYMYWYQQKPGQAPRPLIYRTSNLASGIPARFSGSGSGTDFTLTISSLEPEDFAVYYCQQYHSYPTFGGGTKVEIK | 0.3 | 0.4
13 | SA302a heavy chain variant N33bQ, C34A (antibody, human IgG1, V domains shown, library variant, human IgG1/kappa, from supernatant) VH: QVQLQESGPGLVKPSQTLSLTCTVSGYSITSDYQAHWIRQPPGKGLEWIGYIHYSGSTNYNPSLKSRVTISRDTSKNQFSLKLSSVTAADTAVYYCARNYGSIYVNYFDYWGQGTLVTVSS VL: EIVLTQSPATLSLSPGERATLSCSASSSVSYMYWYQQKPGQAPRPLIYRTSNLASGIPARFSGSGSGTDFTLTISSLEPEDFAVYYCQQYHSYPTFGGGTKVEIK | 1.8 | 1.6
14 | SA302a heavy chain variant N33bF, C34A (antibody, human IgG1, V domains shown, library variant, human IgG1/kappa, from supernatant) VH: QVQLQESGPGLVKPSQTLSLTCTVSGYSITSDYFAHWIRQPPGKGLEWIGYIHYSGSTNYNPSLKSRVTISRDTSKNQFSLKLSSVTAADTAVYYCARNYGSIYVNYFDYWGQGTLVTVSS VL: EIVLTQSPATLSLSPGERATLSCSASSSVSYMYWYQQKPGQAPRPLIYRTSNLASGIPARFSGSGSGTDFTLTISSLEPEDFAVYYCQQYHSYPTFGGGTKVEIK | 1.5 | 1.4
15 | SA302a heavy chain variant N33bH, C34A (antibody, human IgG1, V domains shown, library variant, human IgG1/kappa, from supernatant) VH: QVQLQESGPGLVKPSQTLSLTCTVSGYSITSDYHAHWIRQPPGKGLEWIGYIHYSGSTNYNPSLKSRVTISRDTSKNQFSLKLSSVTAADTAVYYCARNYGSIYVNYFDYWGQGTLVTVSS VL: EIVLTQSPATLSLSPGERATLSCSASSSVSYMYWYQQKPGQAPRPLIYRTSNLASGIPARFSGSGSGTDFTLTISSLEPEDFAVYYCQQYHSYPTFGGGTKVEIK | 0.8 | 0.6
16 | SA301a heavy chain variant N33bV, C34S (antibody, human IgG1, V domains shown, library variant, human IgG1/kappa, from supernatant) VH: QVQLQESGPGLVKPSQTLSLTCTVSGYSITSDYVSHWIRQPPGKGLEWIGYIHYSGSTNYNPSLKSRVTISRDTSKNQFSLKLSSVTAADTAVYYCARNYGSIYVNYFDYWGQGTLVTVSS VL: EIVLTQSPATLSLSPGERATLSCSASSSVSYMYWYQQKPGQAPRPLIYRTSNLASGIPARFSGSGSGTDFTLTISSLEPEDFAVYYCQQYHSYPTFGGGTKVEIK | 0.4 | 0.3
17 | SA302a heavy chain variant N33bT, C34A (antibody, human IgG1, V domains shown, library variant, human IgG1/kappa, from supernatant) VH: QVQLQESGPGLVKPSQTLSLTCTVSGYSITSDYTAHWIRQPPGKGLEWIGYIHYSGSTNYNPSLKSRVTISRDTSKNQFSLKLSSVTAADTAVYYCARNYGSIYVNYFDYWGQGTLVTVSS VL: EIVLTQSPATLSLSPGERATLSCSASSSVSYMYWYQQKPGQAPRPLIYRTSNLASGIPARFSGSGSGTDFTLTISSLEPEDFAVYYCQQYHSYPTFGGGTKVEIK | 0.1 | 0.3
18 | SA301a heavy chain variant N33bY, C34S (antibody, human IgG1, V domains shown, library variant, human IgG1/kappa, from supernatant) VH: QVQLQESGPGLVKPSQTLSLTCTVSGYSITSDYYSHWIRQPPGKGLEWIGYIHYSGSTNYNPSLKSRVTISRDTSKNQFSLKLSSVTAADTAVYYCARNYGSIYVNYFDYWGQGTLVTVSS VL: EIVLTQSPATLSLSPGERATLSCSASSSVSYMYWYQQKPGQAPRPLIYRTSNLASGIPARFSGSGSGTDFTLTISSLEPEDFAVYYCQQYHSYPTFGGGTKVEIK | 1.2 | 0.9
19 | heavy chain library variant C34N (antibody, V domains shown, position 34 variant, human IgG1/kappa, from supernatant; C is the SA44a residue) VH: QVQLQESGPGLVKPSQTLSLTCTVSGYSITSDYNNHWIRQPPGKGLEWIGYIHYSGSTNYNPSLKSRVTISRDTSKNQFSLKLSSVTAADTAVYYCARNYGSIYVNYFDYWGQGTLVTVSS VL: EIVLTQSPATLSLSPGERATLSCSASSSVSYMYWYQQKPGQAPRPLIYRTSNLASGIPARFSGSGSGTDFTLTISSLEPEDFAVYYCQQYHSYPTFGGGTKVEIK | 1 | 0.6
